US8642284B1, “Methods for identifying agents that alter NAD-dependent deacetylation activity of a SIR2 protein” (Massachusetts Institute of Technology, priority 1999, dated 2014)
Entries after “also recorded” stand apart in the source; their conditions may differ.

What was measured:
Format in all cases: biochemical
[1] = tested on: histone H3; assay: ADP-ribosyltransferase activity of Sir2p core domain mutants; conditions: histone H3 substrate; relative to wild type
Description: (§1) The typical reaction of Sir2 deacetylase activity was performed in 50 μl of buffer containing 50 mM Tris-HCl [pH 9.0], 4 mM MgCl2, 0.2 mM DTT, variable concentration of cold nicotinamide adenine dinucleotide (NAD) or NAD derivatives (SIGMA®, MO), 5-10 μg of the purified recombinant Sir2 proteins, and 10 μg of the histone H3 N-terminal tail peptide (amino acid 1-20) di-acetylated at positions 9 and 14 (Upstate Biotechnology™, NY). […] To detect the ADP-ribosylation activity, 8 μCi of NAD 5′-[α-^32P]triphosphate (˜1000 Ci/mmol, Amersham Pharmacia Biotech™, NJ) was added to the same reaction containing 1 μM cold NAD. Histone H3 protein (4 μg) (Roche Molecular Biochemicals™, IN) were used for this assay. All reaction mixtures were incubated at room temperature for 1 hr. Trichostatin A and coumermycin A1 (SIGMA™) were prepared in dimethylsulfoxide (DMSO, SIGMA®), and 5 μl of solvent or inhibitor was added to the reactions prior to adding Sir2 proteins.
Electron-spray mass spectroscopy (also referred to herein as mass spectroscopy) was done on the PE Sciex Model API365™ system. Matrix assisted laser desorption/ionization (MALDI) mass spectroscopy can also be used. The electron-spray mass spectroscopy data were analyzed by the BioMultiView Program™ (version 1.3.1). To detect the ADP-ribosylated intact H3 protein, the pellets were dissolved in 15 μl of Leammli sample buffer, boiled for 1.5 min and electrophoresed in a 10-20% gradient SDS-PAGE gel. The gel was stained with Coomassie Brilliant Blue to check equal loading of histones, dried, and exposed to KODAK® X-OMAT film. To analyze the ADP-ribosylated H3 peptides, 10 μl of each reaction mixture was spotted on a cellulose TLC plate (EM Science™, NJ). The chromatography was performed for 9-10 hrs in a TLC chamber containing the 65:5:3:2:29 mixture of isobutyric acid, pyridine, acetic acid, butanol and water (Scheidtmann, K. H., et al., J. Virol. 44:116-133 (1982)). The plate was dried and exposed to KODAK® X-OMAT film. The peptide spots were checked by ninhydrin staining.
(§2) BL21 with SIR2 or the sir2 mutants subcloned into pET28a (NOVAGEN®) were induced with 1 mM IPTG for 1 hr. The recombinant proteins were purified by Nickel-NTA column under native condition. Ribosylation and deacetylation assays were performed using 1 μg of recombinant protein for the ribosylation assay and 5 μg for the deacetylation assay.
The Sir 2 mutant proteins were also analyzed for ADP-ribosyltransferase activity using the histone H3 substrate, (FIG. 17c). […] The same pattern of activities was observed using a peptide of the N-terminal tail of histone H3 (not shown).

[2] = tested on: di-acetylated H3 peptide (residues 1-20 acetylated on Lys9 and Lys14); assay: deacetylase activity of recombinant Sir2p and Sir2p core domain mutants on H3 peptide; conditions: for NAD-dependent histone H3 deacetylase activity, of wild type activity: 5 μg recombinant protein
Description: as §1
(§3) After the incubation, the products were precipitated at −20° C. overnight by adding 50 μl of distilled water and 25 μl of 100% trichloroacetic acid (TCA) solution. For high pressure liquid chromatography (HPLC), the precipitates were reconstituted in 5% CH3CN and 0.1% trifluoroacetic acid (TFA) and run in the gradient concentration between 0.05% TFA and 0.043% TFA plus 80% CH3CN on Hewlett Packard Model 1100 HPLC system with 214TP52 column (VYDAC, CA). The chromatograms at the absorbance of 210 nm were digitally recorded and analyzed by Hewlett Packard ChemStation™ system (version A.06.03 [509]). Fractions of samples were collected every 1 min by Gilson™ Fraction Collector Model 203. Peptide sequencing was done by the Applied Biosystems PROCISE® 494 HT protein sequencing system. PTH amino acid chromatograms were recorded and analyzed by the ABI Model 610A2.1 data integration/analysis system.
as §2
A set of mutations in highly conserved residues of the core domain of SIR2 were constructed by site-directed mutagenesis (FIG. 17a) and cloned into vectors, along with the wild type, to allow expression of the recombinant proteins in E. coli or expression of single-copy genes from the native SIR2 promoter in S. cerevisiae. These 6×his (SEQ ID NO: 39) tagged proteins were purified from E. coli by a Ni-NTA column (FIG. 17b) and analyzed for the NAD-dependent histone H3 deacetylase activity in an assay with a di-acetylated H3 peptide (residues 1-20 acetylated on Lys9 and Lys14) and 1 mM NAD. HPLC separation of the reaction products yields five peaks of which 1, 2, a portion of 3 and 4 are deacetylated species of peptide (FIG. 15).

[3] = target: T1, Sir2p (Saccharomyces cerevisiae, UniProt P06700); assay: NAD-dependent deacetylation of di-acetylated H3 peptide by recombinant yeast Sir2p (HPLC); conditions: for function in the deacetylation of the H3 peptide by Sir2p: 1 mM NAD derivative; for inhibition of the deacetylase activity in a reaction with NAD: not shown
T1 construct: purified recombinant yeast (rSir2p) protein, mouse Sir2 (mSir2α) proteins and vector controls; 6×His; made in house; host or cells: E. coli BL21 (DE3), pET28a
T1 sequence (P06700 whole entry): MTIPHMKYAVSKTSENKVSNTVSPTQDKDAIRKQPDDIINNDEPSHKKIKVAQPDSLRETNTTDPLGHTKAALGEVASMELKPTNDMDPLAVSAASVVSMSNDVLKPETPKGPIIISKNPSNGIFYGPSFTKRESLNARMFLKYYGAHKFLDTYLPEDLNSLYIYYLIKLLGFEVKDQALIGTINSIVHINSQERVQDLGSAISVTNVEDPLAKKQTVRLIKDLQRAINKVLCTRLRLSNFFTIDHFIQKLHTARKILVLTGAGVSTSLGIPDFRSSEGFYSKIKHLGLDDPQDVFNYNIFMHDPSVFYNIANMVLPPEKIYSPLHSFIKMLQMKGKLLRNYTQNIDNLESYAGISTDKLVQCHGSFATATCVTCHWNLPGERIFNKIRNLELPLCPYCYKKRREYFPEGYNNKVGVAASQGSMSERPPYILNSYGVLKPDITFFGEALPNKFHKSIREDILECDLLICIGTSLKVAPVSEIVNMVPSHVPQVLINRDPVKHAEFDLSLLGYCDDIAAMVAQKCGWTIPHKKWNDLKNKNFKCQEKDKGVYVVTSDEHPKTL
Description: as §1, §3
The experiments employed purified recombinant Sir2p in a reaction with NAD and a peptide of the histone H3 amino-terminal tail (residues 1-20) di-acetylated at lysines 9 and 14. These lysines are hypoacetylated in silenced chromatin and mutations at these positions to glycine greatly reduce silencing in vivo (Thompson, J. S., et al., Nature 369: 245-247 (1994)). The products of a reaction containing 5 μg of recombinant yeast Sir2p (79 pmoles) (FIG. 8a), 10 μg of the H3 peptide (4.2 nmoles) increasing concentrations of NAD were analyzed s by high pressure liquid chromatography (HPLC).

Row | Molecule | ADP-ribosyltransferase activity [1] | NAD-dependent histone H3 deacetylase activity, of wild type activity ([2]; 1 mM NAD) | other results
1 | mutant 275: 6×His tagged yeast Sir2p core domain mutant, Arg-275 mutated to alanine | about as active as wild type | 67% | 
2 | NC(=O)c1ccc[n+]([C@@H]2O[C@H](COP(=O)([O-])OP(=O)(O)OC[C@H]3O[C@@H](n4cnc5c(N)ncnc54)[C@H](OP(=O)(O)O)[C@@H]3O)[C@@H](O)[C@H]2O)c1 [NADP] |  |  | function in the deacetylation of the H3 peptide by Sir2p [3]: did not function significantly; inhibition of the deacetylase activity in a reaction with NAD [3]: neither NADH nor NADP significantly inhibited
3 | NC(=O)C1=CN([C@@H]2O[C@H](COP(=O)(O)OP(=O)(O)OC[C@H]3O[C@@H](n4cnc5c(N)ncnc54)[C@H](O)[C@@H]3O)[C@@H](O)[C@H]2O)C=CC1 [NADH] |  |  | function in the deacetylation of the H3 peptide by Sir2p [3]: functioned weakly; inhibition of the deacetylase activity in a reaction with NAD [3]: neither NADH nor NADP significantly inhibited
4 | mutant 347: 6×His tagged yeast Sir2p core domain mutant, Asp-347 mutated to alanine | completely inactive | inactive | 
5 | CC(/C=C/C(=O)NO)=C\[C@@H](C)C(=O)c1ccc(N(C)C)cc1 [TSA, trichostatin A] |  |  | inhibition of deacetylation by Sir2p ([3]; 400 nM): does not affect; also recorded: totally incapable of inhibiting
6 | mutant 270: 6×His tagged yeast Sir2p core domain mutant, Gly-270 mutated to alanine | 7% | 80% | 
7 | Sir2p: purified recombinant 6×His-tagged yeast Sir2 protein |  |  | input peptide deacetylated ([2]; areas under HPLC peaks 1, 2 and 4, 1 mM NAD): at least 27%; acetyl lysines at positions 9 and 14 deacetylated ([2]; peak 4, Edmann degradation, in the presence of NAD): 23-27%
8 | mutant 345: 6×His tagged yeast Sir2p core domain mutant, Asn-345 mutated to alanine | completely inactive | inactive | 
9 | NC(=O)C1=CN([C@@H]2O[C@H](COP(=O)(O)OP(=O)(O)OC[C@H]3O[C@@H](n4cnc5c(N)ncnc54)[C@H](OP(=O)(O)O)[C@@H]3O)[C@@H](O)[C@H]2O)C=CC1 [NADPH] |  |  | function in the deacetylation of the H3 peptide by Sir2p [3]: did not function significantly
10 | mutant 271: 6×His tagged yeast Sir2p core domain mutant, Iso-271 mutated to alanine | 8% | 36% | 
11 | mutant 261: 6×His tagged yeast Sir2p core domain mutant, Thr-261 mutated to alanine | 4% | 17% | 
